Experimental data taken from patent US7029676B2.
One block for each substance: values may come before it.

Tests used:
Human E-cadherin (human) [1] = biological target: Human E-cadherin (human)
Human E-cadherin (human) [2] = biological target: Human E-cadherin (human); remark: listed apart in the source
Human E-cadherin (human) [3] = biological target: Human E-cadherin (human); remark: listed apart in the source
Human E-cadherin (human) [4] = biological target: Human E-cadherin (human); remark: listed apart in the source
[5] = biological target: integrin β1 subunit (human) (UniProt P05556)

adhesion of COS-7 transfectants to 16E6.A5 monolayers (percent bound) (Human E-cadherin (human) [1]): 9% | adhesion of COS-7 transfectants to L-M E-cadherin transfectants (percent bound) (Human E-cadherin (human) [2]): 16%
Substance: α^4β7 integrin (from UniProt P13612) (receptor)

adhesion of IEL to L-M monolayers (percent of IEL bound) (Human E-cadherin (human) [3]): 89% | adhesion of α^Eβ7 COS-7 transfectants to L-M monolayers (Human E-cadherin (human) [4]): 79% | adhesion of COS-7 transfectants to 16E6.A5 monolayers (Human E-cadherin (human) [1]): 267% | adhesion of COS-7 transfectants to L-M E-cadherin transfectants (Human E-cadherin (human) [2]): 81%
Substance: α^Eβ7 integrin (from UniProt P38570) (receptor)

inhibition of IEL adhesion to the 16E6.A5 epithelial cell monolayer [5]: 21%
Substance: 4B4 (antibody)
